Source: publication PMC4486954, “Highly homologous proteins exert opposite biological activities by using different interaction interfaces” (Scientific Reports, 2015)
No end group written: not given here.

Columns and labels:
HLT-iASPP Pro [1] = assay: Peptide array screening: HLT-iASPP Pro binding to array of iASPP Ank-SH3 derived peptides; parameters: species or system human; details: CelluSpots array, N-acetylated 15-residue peptides on cellulose; 50 mM Phosphate pH 7.0, IS = 150 mM; anti His HRP, chemiluminescence
Method: (§1) The CelluSpots^TM peptide micro-arrays were synthesized by INTAVIS Bioanalytical Instruments AG, Köln, Germany. The 15 residue peptides were acetylated at their N-termini and attached to a cellulose membrane via their C termini through an amide bond. For screening the binding of the array to HLT-iASPP Ank-SH3 the array was first washed for 4 h at room temperature with 50 mM Tris-HCl pH = 8 at an ionic strength (IS) of 150 mM adjusted by NaCl, 0.05% Tween20 and 2.5% (W/V) skimmed milk (buffer D) for blocking unspecific binding. HLT-iASPP Ank-SH3 was dissolved in 20 mM Phosphate buffer pH = 7.0 IS = 150 mM, 5 mM βME, 10% glycerol and 0.02% NaN3 and 2.5% skimmed milk. 5 ml of 5 μM of the protein were incubated with the arrays at 4 °C with shaking overnight. After three washes with TBST, the array was incubated with anti His HRP conjugated antibody at room temperature for 1 hour. The antibody was dissolved in buffer D. Then the array was washed again three times with TBST. Immunodetection was performed using chemiluminiscence (ECL reagents). Peptide array screening for binding HLT-iASPP Pro was also preformed as above with change of the proteins buffer. HLT-iASPP Pro was dissolved in 50 mM Phosphate buffer pH = 7.0, 10% glycerol, 0.02% NaN3, 0.001% Tween 20, IS = 150 mM and 2.5% skimmed milk.

iASPP Ank-SH3 [2] = target: T1, iASPP Ank-SH3 (Homo sapiens, UniProt Q8WUF5); assay: Fluorescence anisotropy binding of fluorescein-labeled iASPP Pro derived peptides to iASPP Ank-SH3; details: 250 μM iASPP Ank-SH3 titrated into 100 nM fluorescein-labeled peptide, 10 °C, 20 mM Hepes pH 7.3, ionic strength 50 mM
T1 construct: (2) iASPP Ank-SH3 603-828; HLT tag (His tag + lipoyl domain + TEV site) (N, cleaved yes); made in house; host or cells: E. coli HMS 174 (Novagen)
T1 sequence (Q8WUF5 603-828): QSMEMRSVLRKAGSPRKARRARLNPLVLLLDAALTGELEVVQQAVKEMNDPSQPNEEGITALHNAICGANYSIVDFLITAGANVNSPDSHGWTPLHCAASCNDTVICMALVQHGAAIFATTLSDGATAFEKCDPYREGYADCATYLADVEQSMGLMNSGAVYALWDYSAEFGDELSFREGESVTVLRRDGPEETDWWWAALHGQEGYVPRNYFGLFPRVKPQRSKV
Method: Binding of the iASPP Pro-derived peptides to iASPP Ank-SH3 was measured by fluorescence anisotropy using a PerkinElmer Life Sciences LS-50b spectrofluorimeter equipped with a Hamilton microlab M dispenser. Titration of iASPP Ank-SH3 into iASPP Pro derived fluorescein-labeled (FL) peptides was performed at 10 °C in 20 mM Hepes buffer, pH 7.3, 43 mM NaCl (total ionic strength = 50 mM), 10% glycerol and 5 mM β-mercaptoethanol. The excitation wavelength was set at 480 nm and the emission measured at 530 nm. The labeled peptide, dissolved in 1 ml buffer to a final concentration of 100 nM, was placed in the cuvette. 250 μM iASPP Ank-SH3 was placed in the dispenser and aliquots of 10–20 μl were added at 1.5 min intervals. The solution was then stirred for 30 sec, and the fluorescence and anisotropy were measured. Data were analyzed using the program Origin8 (OriginLab) and were fit to 1:1 binding model:
[drawing 1] (R- measured fluorescence anisotropy, R0- anisotropy value corresponding to the free peptide, ∆R- amplitude of the fluorescence anisotropy change, [Protein]- protein concentration, Kd- dissociation constant).

HLT-iASPP Ank-SH3 = assay: Peptide array screening: HLT-iASPP Ank-SH3 binding to array of iASPP Pro derived peptides; parameters: species or system human; details: CelluSpots array, N-acetylated 15-residue peptides on cellulose; 5 μM protein, 4 °C overnight; IS = 150 mM, pH 7.0; anti His HRP, chemiluminescence
Method: as §1

[3] = target: iASPP 616-623 peptide 616-623 (Homo sapiens) (UniProt Q8WUF5); assay: ITC; details: cited from earlier work
HLT-iASPP Pro [4] = target: T2, HLT-iASPP Pro (human, UniProt Q8WUF5 1-602); assay: peptide or protein array; CelluSpots array of 24 partly overlapping 15-residue iASPP Ank-SH3 peptides on cellulose; HLT-iASPP Pro in 50 mM phosphate pH 7.0, 10% glycerol, 0.001% Tween 20, ionic strength 150 mM, 2.5% skimmed milk; detected with anti His HRP antibody; details: both partners purified
T2 construct: iASPP (human), proline rich (Pro) domain, residues 1-602 of the 828-residue protein, Swiss-Prot Q8WUF5; Cloned EcoRI/NotI into pHis parallel 2HLT; calculated Mw with tag 75.9 kDa; also called iASPP Pro 1-602; iASPP 1-602; source: E. coli Rosetta2, purified (Nickel Sepharose, size exclusion chromatography); not shown: HLT (His tag, lipoyl domain, TEV protease cleavage site), N-terminal, kept
T2 sequence (looked up): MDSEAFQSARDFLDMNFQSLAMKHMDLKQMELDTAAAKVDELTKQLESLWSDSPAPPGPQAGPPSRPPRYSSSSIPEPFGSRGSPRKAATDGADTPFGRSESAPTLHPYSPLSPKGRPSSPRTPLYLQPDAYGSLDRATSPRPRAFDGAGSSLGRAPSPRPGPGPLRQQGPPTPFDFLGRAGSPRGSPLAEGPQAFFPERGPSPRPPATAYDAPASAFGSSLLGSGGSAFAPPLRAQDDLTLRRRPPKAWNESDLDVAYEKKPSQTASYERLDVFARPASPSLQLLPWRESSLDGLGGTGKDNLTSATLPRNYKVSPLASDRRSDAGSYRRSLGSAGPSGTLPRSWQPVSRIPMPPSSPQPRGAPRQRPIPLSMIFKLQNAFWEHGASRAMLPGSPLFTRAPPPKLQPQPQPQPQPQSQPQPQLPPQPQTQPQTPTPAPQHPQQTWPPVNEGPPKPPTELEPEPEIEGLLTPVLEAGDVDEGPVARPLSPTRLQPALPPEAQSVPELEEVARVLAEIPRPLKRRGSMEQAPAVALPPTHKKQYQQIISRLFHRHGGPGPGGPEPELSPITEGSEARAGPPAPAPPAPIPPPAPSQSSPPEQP

iASPP Ank-SH3 [5] = target: T3, iASPP Ank-SH3 (human, UniProt Q8WUF5 603-828); assay: fluorescence polarisation; fluorescence anisotropy; 250 uM iASPP Ank-SH3 titrated into 100 nM fluorescein-labeled peptide; 10 °C; 20 mM Hepes pH 7.3, 43 mM NaCl (ionic strength 50 mM), 10% glycerol, 5 mM β-mercaptoethanol; fit to a 1:1 model; details: both partners purified
T3 construct: iASPP (human), four ankyrin repeats and SH3 domain, residues 603-828, Swiss-Prot Q8WUF5; also called iASPP Ank-SH3 603-828; cleaved iASPP Ank-SH3; source: E. coli HMS 174, purified (Nickel Sepharose, TEV cleavage, second Nickel column, size exclusion chromatography); not shown: HLT (His tag, lipoyl domain, TEV protease cleavage site), N-terminal, cleaved
T3 sequence (looked up): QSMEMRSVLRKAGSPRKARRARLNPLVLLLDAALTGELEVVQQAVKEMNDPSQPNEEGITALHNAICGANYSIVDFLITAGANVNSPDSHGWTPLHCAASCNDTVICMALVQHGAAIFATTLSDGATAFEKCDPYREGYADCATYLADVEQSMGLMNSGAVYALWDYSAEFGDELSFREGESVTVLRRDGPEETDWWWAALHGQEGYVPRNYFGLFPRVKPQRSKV

iASPP Ank-SH3 [6] = target: T1, iASPP Ank-SH3; details: cited from earlier work
Text: iASPP 1-478 and specifically iASPP 1-240 but not iASPP 249-482 were previously shown to bind iASPP Ank-SH3 in a pull down assay. We further mapped this interaction using peptide arrays and identified the exact regions in iASPP Pro that bind iASPP Ank-SH3.

Molecule: EGYADCATYLADVEQ [iASPP 739-753, array peptide, iASPP Ank-SH3 residues 739-753, fourth ankyrin repeat]
- binding of HLT-iASPP Pro to the peptide in the array (HLT-iASPP Pro [1]): bound

Molecule: iASPP 83-90: iASPP Pro derived peptide that includes the iASPP phosphorylation site S84 (GSPRKAAT; UniProt Q8WUF5 83-90, looked up, fragment)
- binding to iASPP Ank-SH3 (in words) (iASPP Ank-SH3 [2]): did not bind
- binding of HLT-iASPP Ank-SH3 to the peptide in the array (HLT-iASPP Ank-SH3): did not bind

Molecule: SMEMRSVLRKAGSPR [iASPP 604-618, array peptide, iASPP residues 604-618]
- binding of HLT-iASPP Ank-SH3 to the peptide in the array (HLT-iASPP Ank-SH3): bound

Molecule: WAALHGQEGYVPRNY [iASPP 800-814, array peptide, iASPP Ank-SH3 residues 800-814]
- binding of HLT-iASPP Pro to the peptide in the array (HLT-iASPP Pro [1]): bound

Molecule: YALWDYSAEFGDELS [iASPP 764-778, array peptide, iASPP Ank-SH3 residues 764-778, RT loop]
- binding of HLT-iASPP Pro to the peptide in the array (HLT-iASPP Pro [1]): bound

Molecule: iASPP Ank-SH3 (from UniProt Q8WUF5)
- Kd [3]: 45 µM

B1: iASPP Ank-SH3 array peptide 739-753 (spot E16) (peptide)
peptide: Ac-EGYADCATYLADVEQ-{cellulose membrane (amide bond)}
modifications: also: C-terminus bound to cellulose membrane via amide
notes: source: synthetic peptide on CelluSpots array (INTAVIS)
- binding result (HLT-iASPP Pro [4]): binds

B2: iASPP Ank-SH3 array peptide 764-778 (spot E19) (peptide)
peptide: Ac-YALWDYSAEFGDELS-{cellulose membrane (amide bond)}
modifications: also: C-terminus bound to cellulose membrane via amide
notes: as for B1
- binding result (HLT-iASPP Pro [4]): binds

B3: iASPP Ank-SH3 array peptide 800-814 (spot E23) (peptide)
peptide: Ac-WAALHGQEGYVPRNY-{cellulose membrane (amide bond)}
modifications: also: C-terminus bound to cellulose membrane via amide
notes: iASPP (human) residues 800-814; also called iASPP 800-814; source: synthetic peptide on CelluSpots array (INTAVIS)
- binding result (HLT-iASPP Pro [4]): binds

Molecule: {5(6)‑carboxyfluorescein}-QAGPPSRPPRYSSSS [fluorescein labeled iASPP 60-74]
- Kd (iASPP Ank-SH3 [5]): 35 ± 2 µM

Molecule: {5(6)‑carboxyfluorescein}-KKQYQQIISRLFHRHGGPGPGGP [fluorescein labeled iASPP 540-562]
- Kd (iASPP Ank-SH3 [5]): 34 ± 2 µM

B4: iASPP 1-478: iASPP fragment 1-478 of a previous pull down assay (protein, UniProt Q8WUF5 1-478, looked up, fragment)
chain: MDSEAFQSARDFLDMNFQSLAMKHMDLKQMELDTAAAKVDELTKQLESLWSDSPAPPGPQAGPPSRPPRYSSSSIPEPFGSRGSPRKAATDGADTPFGRSESAPTLHPYSPLSPKGRPSSPRTPLYLQPDAYGSLDRATSPRPRAFDGAGSSLGRAPSPRPGPGPLRQQGPPTPFDFLGRAGSPRGSPLAEGPQAFFPERGPSPRPPATAYDAPASAFGSSLLGSGGSAFAPPLRAQDDLTLRRRPPKAWNESDLDVAYEKKPSQTASYERLDVFARPASPSLQLLPWRESSLDGLGGTGKDNLTSATLPRNYKVSPLASDRRSDAGSYRRSLGSAGPSGTLPRSWQPVSRIPMPPSSPQPRGAPRQRPIPLSMIFKLQNAFWEHGASRAMLPGSPLFTRAPPPKLQPQPQPQPQPQSQPQPQLPPQPQTQPQTPTPAPQHPQQTWPPVNEGPPKPPTELEPEPEIEGLLTPVLEAGD
- binding to iASPP Ank-SH3 in pull down assay (iASPP Ank-SH3 [6]): bind

B5: iASPP 1-240: iASPP fragment 1-240 of a previous pull down assay (protein, UniProt Q8WUF5 1-240, looked up, fragment)
chain: MDSEAFQSARDFLDMNFQSLAMKHMDLKQMELDTAAAKVDELTKQLESLWSDSPAPPGPQAGPPSRPPRYSSSSIPEPFGSRGSPRKAATDGADTPFGRSESAPTLHPYSPLSPKGRPSSPRTPLYLQPDAYGSLDRATSPRPRAFDGAGSSLGRAPSPRPGPGPLRQQGPPTPFDFLGRAGSPRGSPLAEGPQAFFPERGPSPRPPATAYDAPASAFGSSLLGSGGSAFAPPLRAQDDL
- binding to iASPP Ank-SH3 in pull down assay (iASPP Ank-SH3 [6]): bind

B6: iASPP 249-482: iASPP fragment 249-482 of a previous pull down assay (protein, UniProt Q8WUF5 249-482, looked up, fragment)
chain: AWNESDLDVAYEKKPSQTASYERLDVFARPASPSLQLLPWRESSLDGLGGTGKDNLTSATLPRNYKVSPLASDRRSDAGSYRRSLGSAGPSGTLPRSWQPVSRIPMPPSSPQPRGAPRQRPIPLSMIFKLQNAFWEHGASRAMLPGSPLFTRAPPPKLQPQPQPQPQPQSQPQPQLPPQPQTQPQTPTPAPQHPQQTWPPVNEGPPKPPTELEPEPEIEGLLTPVLEAGDVDEG
- binding to iASPP Ank-SH3 in pull down assay (iASPP Ank-SH3 [6]): not
